{"source": "IntAct's records for PubMed 23706742", "parents": {"B1": {"name": "GTP-binding protein Di-Ras1 (Mus musculus), Q91Z61 (parent)", "chain": "MPEQSNDYRVVVFGAGGVGKSSLVLRFVKGTFRDTYIPTIEDTYRQVISCDKSVCTLQITDTTGSHQFPAMQRLSISKGHAFILVFSVTSKQSLDELSPIYKLIVQIKGSVEDIPIMLVGNKCDETQREVHTREAQAVAQEWKCAFMETSAKMNYNVKELFQELLTLETRRSVSLSVDGKRSSKQKRADRIKGKCALM"}, "B2": {"name": "Phosphatidylinositol 4,5-bisphosphate 3-kinase catalytic subunit beta isoform (Mus musculus), Q8BTI9 (parent)", "chain": "MPPAMADNLDIWAVDSQIASDGAISVDFLLPTGIYIQLEVPREATISYIKQMLWKQVHNYPMFNLLMDIDSYMFACVNQTAVYEELEDETRRLCDVRPFLPVLKLVTRSCDPAEKLDSKIGVLIGKGLHEFDALKDPEVNEFRRKMRKFSEAKIQSLVGLSWIDWLKHTYPPEHEPSVLENLEDKLYGGKLVVAVHFENSQDVFSFQVSPNLNPIKINELAIQKRLTIRGKEDEASPCDYVLQVSGRVEYVFGDHPLIQFQYIRNCVMNRTLPHFILVECCKIKKMYEQEMIAIEAAINRNSSNLPLPLPPKKTRVISHIWDNNNPFQITLVKGNKLNTEETVKVHVRAGLFHGTELLCKTVVSSEISGKNDHIWNEQLEFDINICDLPRMARLCFAVYAVLDKVKTKKSTKTINPSKYQTIRKAGKVHYPVAWVNTMVFDFKGQLRSGDVILHSWSSFPDELEEMLNPMGTVQTNPYAENATALHITFPENKKQPCYYPPFDKIIEKAAELASGDSANVSSRGGKKFLAVLKEILDRDPLSQLCENEMDLIWTLRQDCRENFPQSLPKLLLSIKWNKLEDVAQLQALLQIWPKLPPREALELLDFNYPDQYVREYAVGCLRQMSDEELSQYLLQLVQVLKYEPFLDCALSRFLLERALDNRRIGQFLFWHLRSEVHTPAVSVQFGVILEAYCRGSVGHMKVLSKQVEALNKLKTLNSLIKLNAVKLSRAKGKEAMHTCLKQSAYREALSDLQSPLNPCVILSELYVEKCKYMDSKMKPLWLVYSSRAFGEDSVGVIFKNGDDLRQDMLTLQMLRLMDLLWKEAGLDLRMLPYGCLATGDRSGLIEVVSTSETIADIQLNSSNVAATAAFNKDALLNWLKEYNSGDDLDRAIEEFTLSCAGYCVASYVLGIGDRHSDNIMVKKTGQLFHIDFGHILGNFKSKFGIKRERVPFILTYDFIHVIQQGKTGNTEKFGRFRQCCEDAYLILRRHGNLFITLFALMLTAGLPELTSVKDIQYLKDSLALGKSEEEALKQFKQKFDEALRESWTTKVNWMAHTVRKDYRS"}}}
{"variants_of": "B1", "conditions": "with pk3cb_mouse Pik3cb"}
{"variant": "MPEQSNDYRVVVFGAGGVGKSSLVLRFVKGTFRDTYDPTIEDTYRQVISCDKSVCTLQITDTTGSHQFPAMQRLSISKGHAFILVFSVTSKQSLDELSPIYKLIVQIKGSVEDIPIMLVGNKCDETQREVHTREAQAVAQEWKCAFMETSAKMNYNVKELFQELLTLETRRSVSLSVDGKRSSKQKRADRIKGKCALM", "note": "[I37D]", "effect of a mutation on the interaction": "decreasing interaction strength"}
{"variants_of": "B2", "conditions": "with rac1_mouse Rac1, P63001"}
{"variant": "E183A", "effect of a mutation on the interaction": "decreasing interaction strength"}
{"variant": "K185A", "effect of a mutation on the interaction": "decreasing interaction strength"}
{"variant": "L186A", "effect of a mutation on the interaction": "disrupting interaction strength"}
{"variant": "Y187A", "effect of a mutation on the interaction": "disrupting interaction strength"}
{"variant": "K190A", "effect of a mutation on the interaction": "decreasing interaction strength"}
{"variant": "V192K", "effect of a mutation on the interaction": "disrupting interaction strength"}
{"variant": "V192S", "effect of a mutation on the interaction": "disrupting interaction strength"}
{"variant": "A194K", "effect of a mutation on the interaction": "disrupting interaction strength"}
{"variant": "A194S", "effect of a mutation on the interaction": "decreasing interaction strength"}
{"variant": "D202A", "effect of a mutation on the interaction": "disrupting interaction strength"}
{"variant": "V203K", "effect of a mutation on the interaction": "disrupting interaction strength"}
{"variant": "V203S", "effect of a mutation on the interaction": "disrupting interaction strength"}
{"variant": "S205D;K224A", "effect of a mutation on the interaction": "decreasing interaction strength"}
{"variant": "Q207D", "effect of a mutation on the interaction": "decreasing interaction strength"}
{"variant": "E219A", "effect of a mutation on the interaction": "decreasing interaction strength"}
{"variant": "Q223D", "effect of a mutation on the interaction": "decreasing interaction strength"}
{"variant": "T227D", "effect of a mutation on the interaction": "decreasing interaction strength"}
{"variant": "R229A", "effect of a mutation on the interaction": "disrupting interaction strength"}
{"variant": "K231A", "effect of a mutation on the interaction": "decreasing interaction strength"}
{"variants_of": "B2", "conditions": "with cdc42_mouse Cdc42, P60766"}
{"variant": "E183A", "effect of a mutation on the interaction": "decreasing interaction strength"}
{"variant": "K185A", "effect of a mutation on the interaction": "decreasing interaction strength"}
{"variant": "L186A", "effect of a mutation on the interaction": "disrupting interaction strength"}
{"variant": "Y187A", "effect of a mutation on the interaction": "disrupting interaction strength"}
{"variant": "K190A", "effect of a mutation on the interaction": "decreasing interaction strength"}
{"variant": "V192K", "effect of a mutation on the interaction": "disrupting interaction strength"}
{"variant": "V192S", "effect of a mutation on the interaction": "disrupting interaction strength"}
{"variant": "A194K", "effect of a mutation on the interaction": "disrupting interaction strength"}
{"variant": "A194S", "effect of a mutation on the interaction": "decreasing interaction strength"}
{"variant": "D202A", "effect of a mutation on the interaction": "disrupting interaction strength"}
{"variant": "V203K", "effect of a mutation on the interaction": "disrupting interaction strength"}
{"variant": "V203S", "effect of a mutation on the interaction": "disrupting interaction strength"}
{"variant": "S205D;K224A", "effect of a mutation on the interaction": "decreasing interaction strength"}
{"variant": "Q207D", "effect of a mutation on the interaction": "decreasing interaction strength"}
{"variant": "E219A", "effect of a mutation on the interaction": "decreasing interaction strength"}
{"variant": "Q223D", "effect of a mutation on the interaction": "decreasing interaction strength"}
{"variant": "T227D", "effect of a mutation on the interaction": "disrupting interaction strength"}
{"variant": "R229A", "effect of a mutation on the interaction": "disrupting interaction strength"}
{"variant": "K231A", "effect of a mutation on the interaction": "disrupting interaction strength"}
{"variants_of": "B2", "conditions": "with cdc42_mouse Cdc42, P60766", "remark": "another data set of the same source"}
{"variant": "S205D;K224A", "effect of a mutation on the interaction": "disrupting interaction strength"}
{"variants_of": "B2", "conditions": "with rash_mouse Hras"}
{"variant": "S205D;K224A", "effect of a mutation on the interaction": "disrupting interaction strength"}
{"variants_of": "B2", "conditions": "with rac1_mouse Rac1, P63001", "remark": "another data set of the same source"}
{"variant": "S205D;K224A", "effect of a mutation on the interaction": "disrupting interaction"}
{"variants_of": "B2", "conditions": "with cdc42_mouse Cdc42, P60766", "remark": "another data set of the same source"}
{"variant": "S205D;K224A", "effect of a mutation on the interaction": "disrupting interaction"}
{"variants_of": "B2", "conditions": "with rac1_mouse Rac1, P63001", "remark": "another data set of the same source"}
{"variant": "S205D;V244A", "effect of a mutation on the interaction": "disrupting interaction strength"}
